Assay results taken from publication doi:10.1101/2023.03.20.533423 (bioRxiv, 2023).

Biological target: T1, M. tb ParB with C-terminal 6xHis-tag (M. tuberculosis, UniProt P9WIJ9 1-344)
T1 sequence: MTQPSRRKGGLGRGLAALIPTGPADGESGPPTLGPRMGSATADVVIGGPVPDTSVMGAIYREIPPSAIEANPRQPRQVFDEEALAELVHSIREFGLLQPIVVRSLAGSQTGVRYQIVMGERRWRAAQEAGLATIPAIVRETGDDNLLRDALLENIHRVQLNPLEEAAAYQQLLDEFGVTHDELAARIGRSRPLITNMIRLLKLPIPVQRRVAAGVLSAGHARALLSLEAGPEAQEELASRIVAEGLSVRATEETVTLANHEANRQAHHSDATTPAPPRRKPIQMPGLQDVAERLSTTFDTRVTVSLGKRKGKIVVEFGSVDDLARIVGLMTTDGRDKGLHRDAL
Experiment: pull-down

B1: GST-Rv1708 (natural protein)
chain: MPAGLPGQASVAVRLSCDVPPDARHHEPRPGMTDHPDTGNGIGLTGRPPRAIPDPAPRSSHGPAKVIAMCNQKGGVGKTTSTINLGAALGEYGRRVLLVDMDPQGALSAGLGVPHYELDKTIHNVLVEPRVSIDDVLIHSRVKNMDLVPSNIDLSAAEIQLVNEVGREQTLARALYPVLDRYDYVLIDCQPSLGLLTVNGLACTDGVIIPTECEFFSLRGLALLTDTVDKVRDRLNPKLDISGILITRYDPRTVNSREVMARVVERFGDLVFDTVITRTVRFPETSVAGEPITTWAPKSAGALAYRALARELIDRFGM
B1: binds.
